± gives the uncertainty stated by the source.
B1: Serine/threonine-protein kinase A-Raf, residues 21 to 89; numbered along this chain, P10398 (parent)
chain: VKVYLPNKQRTVVTVRDGMSVYDSLDKALKVRGLNQDCCVVYRLIKGRKTVTAWDTAIAPLDGEELIVE

Variants of: B1
Assay: abundance fitness (aPCA) (normalised: wild type 0, dead -1); higher = more abundant; growth selection in yeast, the domain comes from the species named
Conditions: Homo sapiens
VKVYLPNKQRTVVTVRDGMSVYDSLDKALKVRGLNQDCCVVYRLIKGRKTVTAYDTAIAPLDGEELIVE gave an abundance fitness of -0.756 ± 0.2.
In the case of VKVYLPNKQRTVVTVRDGMSVYDSLDKALKVRGLNQDCCVVYRLIKGRKTVTAPDTAIAPLDGEELIVE, the abundance fitness is reported as -0.924 ± 0.14.
Variant VKVYLPNKQRTVVTVRDGMSVYDSLDKALKVRGLNQDCCVVYRLIKGRKTVTARDTAIAPLDGEELIVE has an abundance fitness of -0.879 ± 0.1.
For VKVYLPNKQRTVVTVRDGMSVYDSLDKALKVRGLNQDCCVVYRLIKGRKTVTAWDTAIIPLDGEELIVE, the abundance fitness was 0.131 ± 0.1.
Work on VKVYLPNKQRTVVTVRDGMSVYDSLDKALKVRGLNQDCCVVYRLIKGRKTVTAWDTAINPLDGEELIVE yielded an abundance fitness of -0.366 ± 0.21.
For VKVYLPNKQRTVVTVRDGMSVYDSLDKALKVRGLNQDCCVVYRLIKGRKTVTAWDTAIRPLDGEELIVE, the abundance fitness was -0.007 ± 0.043.
With VKVYLPNKQRTVVTVRDGMSVYDSLDKALKVRGLNQDCCVVYRLIKGRKTVTAWDTAIWPLDGEELIVE the abundance fitness was -0.14 ± 0.065.
For VKVYLPNKQRTVVTVRDGMSVYDSLDKALKVRGLNQDCCVVYRLIKGRKTVTAWDTAIDPLDGEELIVE, the abundance fitness was -0.08 ± 0.11.
In the case of VKVYLPNKQRTVVTVRDGMSVYDSLDKALKVRGLNQDCCVVYRLIKGRKTVTAWDTAIEPLDGEELIVE, the abundance fitness is reported as -0.068 ± 0.067.
For VKVYLPNKQRTVVTVRDGMSVYDSLDKALKVRGLNQDCCVVYRLIKGRKTVTAWDTAIFPLDGEELIVE, the abundance fitness was -0.015 ± 0.12.
VKVYLPNKQRTVVTVRDGMSVYDSLDKALKVRGLNQDCCVVYRLIKGRKTVTAWDTAILPLDGEELIVE gave an abundance fitness of -0.071 ± 0.049.
With VKVYLPNKQRTVVTVRDGMSVYDSLDKALKVRGLNQDCCVVYRLIKGRKTVTAWDTAIMPLDGEELIVE the abundance fitness was 0.078 ± 0.06.
Variant VKVYLPNKQRTVVTVRDGMSVYDSLDKALKVRGLNQDCCVVYRLIKGRKTVTAWDTAISPLDGEELIVE has an abundance fitness of 0.002 ± 0.027.
Variant VKVYLPNKQRTVVTVRDGMSVYDSLDKALKVRGLNQDCCVVYRLIKGRKTVTAWDTAIGPLDGEELIVE has an abundance fitness of 0.017 ± 0.049.
Work on VKVYLPNKQRTVVTVRDGMSVYDSLDKALKVRGLNQDCCVVYRLIKGRKTVTAWDTAIKPLDGEELIVE yielded an abundance fitness of -0.076 ± 0.067.
In the case of VKVYLPNKQRTVVTVRDGMSVYDSLDKALKVRGLNQDCCVVYRLIKGRKTVTAWDTAITPLDGEELIVE, the abundance fitness is reported as 0.054 ± 0.058.
With VKVYLPNKQRTVVTVRDGMSVYDSLDKALKVRGLNQDCCVVYRLIKGRKTVTAWDTAIVPLDGEELIVE the abundance fitness was -0.122 ± 0.041.
With VKVYLPNKQRTVVTVRDGMSVYDSLDKALKVRGLNQDCCVVYRLIKGRKTVTAWDTAIPPLDGEELIVE the abundance fitness was -0.646 ± 0.12.
VKVYLPNKQRTVVTVRDGMSVYDSLDKALKVRGLNQDCCVVYRLIKGRKTVTAWDTAICPLDGEELIVE gave an abundance fitness of -0.188 ± 0.11.
Work on VKVYLPNKQRTVVTVRDGMSVYDSLDKALKVRGLNQDCCVVYRLIKGRKTVTAWDTAIQPLDGEELIVE yielded an abundance fitness of -0.008 ± 0.086.
With VKVYLPNKQRTVVTVRDGMSVYDSLDKALKVRGLNQDCCVVYRLIKGRKTVTAWDTAIYPLDGEELIVE the abundance fitness was 0.01 ± 0.44.
With VKVYLPNKQRTVVTVRDGMSVYDSLDKALKVRGLNQDCCVVYRLIKGRKTVTAWDTAMAPLDGEELIVE the abundance fitness was -0.004 ± 0.065.
In the case of VKVYLPNKQRTVVTVRDGMSVYDSLDKALKVRGLNQDCCVVYRLIKGRKTVTAWDTAFAPLDGEELIVE, the abundance fitness is reported as -0.021 ± 0.12.
With VKVYLPNKQRTVVTVRDGMSVYDSLDKALKVRGLNQDCCVVYRLIKGRKTVTAWDTAVAPLDGEELIVE the abundance fitness was -0.185 ± 0.049.
For VKVYLPNKQRTVVTVRDGMSVYDSLDKALKVRGLNQDCCVVYRLIKGRKTVTAWDTAQAPLDGEELIVE, the abundance fitness was -0.952 ± 0.2.
For VKVYLPNKQRTVVTVRDGMSVYDSLDKALKVRGLNQDCCVVYRLIKGRKTVTAWDTADAPLDGEELIVE, the abundance fitness was -0.881 ± 0.34.
In the case of VKVYLPNKQRTVVTVRDGMSVYDSLDKALKVRGLNQDCCVVYRLIKGRKTVTAWDTAPAPLDGEELIVE, the abundance fitness is reported as -0.872 ± 0.21.
For VKVYLPNKQRTVVTVRDGMSVYDSLDKALKVRGLNQDCCVVYRLIKGRKTVTAWDTANAPLDGEELIVE, the abundance fitness was -0.858 ± 0.45.
In the case of VKVYLPNKQRTVVTVRDGMSVYDSLDKALKVRGLNQDCCVVYRLIKGRKTVTAWDTAAAPLDGEELIVE, the abundance fitness is reported as -0.201 ± 0.085.
VKVYLPNKQRTVVTVRDGMSVYDSLDKALKVRGLNQDCCVVYRLIKGRKTVTAWDTAYAPLDGEELIVE gave an abundance fitness of 0.146 ± 0.088.
Variant VKVYLPNKQRTVVTVRDGMSVYDSLDKALKVRGLNQDCCVVYRLIKGRKTVTAWDTAKAPLDGEELIVE has an abundance fitness of -0.86 ± 0.21.
VKVYLPNKQRTVVTVRDGMSVYDSLDKALKVRGLNQDCCVVYRLIKGRKTVTAWDTATAPLDGEELIVE gave an abundance fitness of -0.729 ± 0.097.
For VKVYLPNKQRTVVTVRDGMSVYDSLDKALKVRGLNQDCCVVYRLIKGRKTVTAWDTAGAPLDGEELIVE, the abundance fitness was -0.725 ± 0.094.
VKVYLPNKQRTVVTVRDGMSVYDSLDKALKVRGLNQDCCVVYRLIKGRKTVTAWDTACAPLDGEELIVE gave an abundance fitness of -0.001 ± 0.083.
VKVYLPNKQRTVVTVRDGMSVYDSLDKALKVRGLNQDCCVVYRLIKGRKTVTAWDTASAPLDGEELIVE showed an abundance fitness of -0.278 ± 0.068.
With VKVYLPNKQRTVVTVRDGMSVYDSLDKALKVRGLNQDCCVVYRLIKGRKTVTAWDTALAPLDGEELIVE the abundance fitness was -0.015 ± 0.039.
VKVYLPNKQRTVVTVRDGMSVYDSLDKALKVRGLNQDCCVVYRLIKGRKTVTAWDTAIADLDGEELIVE showed an abundance fitness of 0.138 ± 0.12.
VKVYLPNKQRTVVTVRDGMSVYDSLDKALKVRGLNQDCCVVYRLIKGRKTVTAWDTAIAALDGEELIVE showed an abundance fitness of 0.147 ± 0.066.
In the case of VKVYLPNKQRTVVTVRDGMSVYDSLDKALKVRGLNQDCCVVYRLIKGRKTVTAWDTAIACLDGEELIVE, the abundance fitness is reported as -0.221 ± 0.2.
